Source: patent US20110104788A1 (published 2011)

B3: mouse coagulation factor X (enzyme)
chain: ANSFFEEFKKGNLERECMEEICSYEEVREIFEDDEKTKEYWTKYKDGDQCESSPCQNQGACRDGIGGYTCTCSEGFEGKNCELFVRKLCRLDNGDCDQFCREEQNSVVCSCASGYFLGNDGKSCISTAPFPCGKITTGRRKRSVALNTSDSELDLEDALLDEDFLSPTENPIELLNLNETQPERSSDDLVRIVGGRECKDGECPWQALLINEDNEGFCGGTILNEFYILTAAHCLHQARRFKVRVGDRNTEKEEGNEMVHEVDVVIKHNKFQRDTYDYDIAVLRLKTPITFRMNVAPACLPQKDWAESTLMTQKTGIVSGFGRTHEKGRQSNILKMLEVPYVDRNTCKLSTSFSITQNMFCAGYEAKLEDACQGDSGGPHVTRFKNTYYVTGIVSWGEGCARKGKYGIYTKVTTFLKWIDRSMKARVGPTAETPRTAGPPN

Columns and labels:
[1] = molecular target: T1, adenovirus serotype 5 (Ad5) virus particle (human adenovirus serotype 5, UniProt P04133 1-952); test: SPR; biotinylated EGF2-SP FXa coupled to SA chip, Ad5 injected
T1 construct: also called Ad5CMVlacZ (control virus with unmodified hexon); intact virus Ad5

[2] = molecular target: B3; test: SPR (Biacore T100); mouse FX immobilised on CM5 chip, inhibitor injected; heterogeneous ligand model
[3] = molecular target: T2, human coagulation factor X (FX), full-length zymogen (human, UniProt P00742 41-488, genetically encoded glutamic acid residues of the Gla domain converted to γ-carboxyglutamic acid); test: SPR (Biacore T100); human FX immobilised on CM5 chip, inhibitor injected; heterogeneous ligand model
T2 construct: mature; also called human FX; hFX

[4] = molecular target: Ixolaris, 12 kDa two-Kunitz domain protein isolated from tick salivary gland (tick, UniProt Q964Q0 27-165)

B1: human FXa mutant containing the C-terminal EGF2-SP domain (EGF2-SP FXa) (enzyme)
chain: TRKLCSLDNGDCDQFCHEEQNSVVCSCARGYTLADNGKACIPTGPYPCGKQTLERIVGGQECKDGECPWQALLINEENEGFCGGTILSEFYILTAAHCLYQAKRFKVRVGDRNTEQEEGGEAVHEVEVVIKHNRFTKETYDFDIAVLRLKTPITFRMNVAPACLPERDWAESTLMTQKTGIVSGFGRTHEKGRQSTRLKMLEVPYVDRNSCKLSSSFIITQNMFCAGYDTKQEDACQGDSGGPHVTRFKDTYFVTGIVSWGEGCARKGKYGIYTKVTAFLKWIDRSMKTRGLPKAKSHAPEVITSSPLK
modifications: biotinylated with biotin-FPRCK
notes: domain: EGF2-SP; also called EGF2-SP fragment; rFX EGF2-SP
Q: Does B1 bind [1]?
A: no binding

B2: Factor X-binding protein (X-bp) from Deinagkistrodon acutus (other)
chain 1: DCSSGWSSYEGHCYKVFKQSKTWADAESFCTKQVNGGHLVSIESSGEADFVGQLIAQKIKSAKIHVWIGLRAQNKEKQCSIEWSDGSSISYENWIEEESKKCLGVHIETGFHKWENFYCEQQDPFVCEA
chain 2: DCPSDWSSYEGHCYKPFNEPKNWADAENFCTQQHTGSHLVSFQSTEEADFVVKLAFQTFDYGIFWMGLSKIWNQCNWQWSNAAMLKYTDWAEESYCVYFKSTNNKWRSITCRMIANFVCEFQA
Q: With B2 as the binder, how does the Kd [2] read?
A: 1.04 nM

Q: What about the koff [2] of the same binder?
A: 0.00031 s⁻¹

Q: And the kon [2]?
A: 296000 M⁻¹ s⁻¹

Q: What about the Kd [3] of the same binder?
A: 0.118 nM

Q: And the koff [3]?
A: 0.00023 s⁻¹

Q: And the kon [3]?
A: 1.96e+06 M⁻¹ s⁻¹

Q: What does the source list for B3?
A: Kd [4]: 0.000515 nM; koff [4]: 8.1e-07 s⁻¹; kon [4]: 1.57e+06 M⁻¹ s⁻¹
